Experimental data reported in publication doi:10.1101/2020.12.04.20244186.

Molecular target: c-KIT extracellular domain (soluble KIT) (UniProt P10721-2 26-516)
Assay: square wave voltammetry

B1: Fc-labeled scrambled control oligo (Au/Fc-control) (ssDNA)
DNA: TGACGGGAGACTTAAAACGCAAGGGGTGCAGCTATCGCGGAGGCCAAGGGTTCAAGTCGACGGGTAGCTAGGTTGGA
modifications: 5'-disulfide (thiol after TCEP, on gold electrode); 3'-NH2 coupled to ferrocene carboxylic acid
binding result: no binding
